Laboratory results as given in patent US20240092867A1 (UNIVERSITY OF CHICAGO, published 2024).

Legend:
[1] = molecular target: T1, recombinant laminin α3 2928-3150 protein (linker domain and LG4 domain) (human, UniProt Q16787 2928-3150); assay: SPR, α3 2928-3150 immobilised, GF flowed, Langmuir fit
T1 construct: range 2928-3150; Made in HEK-293F cells; also called laminin alpha 3 LG domain recombinant protein
T1 sequence: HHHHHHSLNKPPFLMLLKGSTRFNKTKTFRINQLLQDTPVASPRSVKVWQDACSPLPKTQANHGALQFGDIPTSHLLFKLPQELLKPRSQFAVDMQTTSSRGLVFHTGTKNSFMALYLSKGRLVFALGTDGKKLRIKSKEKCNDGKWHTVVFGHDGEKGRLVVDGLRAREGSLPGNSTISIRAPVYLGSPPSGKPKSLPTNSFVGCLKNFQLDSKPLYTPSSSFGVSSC
Description: Affinity of GFs against recombinant laminin LG domains. ELISA plates were coated with 1 μg/mL (A) α3₂₉₂₈₋₃₁₅₀, (B) α4₈₂₆₋₁₈₁₆, or (C) α5₃₀₂₆₋₃₄₈₂ and further incubated with 1 μg/mL of VEGF-A165, VEGF-A121, PlGF-2, PlGF-1, PDGF-BB, or FGF-2 solution. Bound GFs were detected using a specific antibody for each GF (n=4, mean±SEM). Statistical analyses were done using the Mann-Whitney U test by comparing the signals obtained from the laminin domain- and the BSA-coated wells. *p<0.05, **p<0.01. […] A SPR chip was functionalized with the laminin α3₂₉₂₈₋₃₁₅₀ recombinant protein (˜1000 RU), and each GF was flowed over the chip at indicated concentrations. Curves represent the specific responses (in RU) to laminin. Experimental curves were fitted with Langmuir binding kinetics.
(§1) Because the GFs that bound to laminins have also been previously reported to bind to other ECM glycoproteins through HBDs, it was hypothesized that HBDs of laminins might be responsible for the interactions between GFs and laminin. To address this hypothesis, ELISA assays were repeated for VEGF-A165, PlGF-2 or FGF-2 in the presence of heparin added in excess (10 μM). […] To further confirm this, the inventors tested direct GF binding to the LG domains from human laminin α3, α4 and α5, within which HBDs of laminin were localized.
SPR analysis was performed as described previously². […]

[2] = molecular target: T1, recombinant laminin α3 2928-3150 …; assay: SPR; α3 2928-3150 recombinant protein immobilised (~1000 RU), VEGF-A165 flowed at 0.325-10.4 nM; Langmuir fit [panel D]
Text: Statistical analyses were done using the Mann-Whitney U test by comparing the signals obtained from the laminin domain- and the BSA-coated wells. *p<0.05, **p<0.01. […] A SPR chip was functionalized with the laminin α3₂₉₂₈₋₃₁₅₀ recombinant protein (˜1000 RU), and each GF was flowed over the chip at indicated concentrations. Curves represent the specific responses (in RU) to laminin. Experimental curves were fitted with Langmuir binding kinetics.
as §1
SPR analysis was performed as described previously². In brief, measurements were made with a Biacore 3000 SPR system (GE Healthcare). […] VEGF-A165, PDGF-BB, or PlGF-2 was flowed at increasing concentrations in the running buffer at 20 μL/min. The sensor chip was regenerated with 50 mM NaOH for every cycle.

[3] = molecular target: T2, laminin-411 (human, UniProt Q16363 25-1823; P07942 22-1786; P11047 34-1609); assay: ELISA; plate coated with 10 µg/mL laminin, 1 µg/mL VEGF-A165 in solution without or with 10 µM heparin, bound GF detected with antibody [panel A]
T2 construct: Full-length recombinant human laminin isoform (BioLamina); chains read from the isoform name
T2 sequence (Q16363 25-1823 limits assumed, chain 1 of 3): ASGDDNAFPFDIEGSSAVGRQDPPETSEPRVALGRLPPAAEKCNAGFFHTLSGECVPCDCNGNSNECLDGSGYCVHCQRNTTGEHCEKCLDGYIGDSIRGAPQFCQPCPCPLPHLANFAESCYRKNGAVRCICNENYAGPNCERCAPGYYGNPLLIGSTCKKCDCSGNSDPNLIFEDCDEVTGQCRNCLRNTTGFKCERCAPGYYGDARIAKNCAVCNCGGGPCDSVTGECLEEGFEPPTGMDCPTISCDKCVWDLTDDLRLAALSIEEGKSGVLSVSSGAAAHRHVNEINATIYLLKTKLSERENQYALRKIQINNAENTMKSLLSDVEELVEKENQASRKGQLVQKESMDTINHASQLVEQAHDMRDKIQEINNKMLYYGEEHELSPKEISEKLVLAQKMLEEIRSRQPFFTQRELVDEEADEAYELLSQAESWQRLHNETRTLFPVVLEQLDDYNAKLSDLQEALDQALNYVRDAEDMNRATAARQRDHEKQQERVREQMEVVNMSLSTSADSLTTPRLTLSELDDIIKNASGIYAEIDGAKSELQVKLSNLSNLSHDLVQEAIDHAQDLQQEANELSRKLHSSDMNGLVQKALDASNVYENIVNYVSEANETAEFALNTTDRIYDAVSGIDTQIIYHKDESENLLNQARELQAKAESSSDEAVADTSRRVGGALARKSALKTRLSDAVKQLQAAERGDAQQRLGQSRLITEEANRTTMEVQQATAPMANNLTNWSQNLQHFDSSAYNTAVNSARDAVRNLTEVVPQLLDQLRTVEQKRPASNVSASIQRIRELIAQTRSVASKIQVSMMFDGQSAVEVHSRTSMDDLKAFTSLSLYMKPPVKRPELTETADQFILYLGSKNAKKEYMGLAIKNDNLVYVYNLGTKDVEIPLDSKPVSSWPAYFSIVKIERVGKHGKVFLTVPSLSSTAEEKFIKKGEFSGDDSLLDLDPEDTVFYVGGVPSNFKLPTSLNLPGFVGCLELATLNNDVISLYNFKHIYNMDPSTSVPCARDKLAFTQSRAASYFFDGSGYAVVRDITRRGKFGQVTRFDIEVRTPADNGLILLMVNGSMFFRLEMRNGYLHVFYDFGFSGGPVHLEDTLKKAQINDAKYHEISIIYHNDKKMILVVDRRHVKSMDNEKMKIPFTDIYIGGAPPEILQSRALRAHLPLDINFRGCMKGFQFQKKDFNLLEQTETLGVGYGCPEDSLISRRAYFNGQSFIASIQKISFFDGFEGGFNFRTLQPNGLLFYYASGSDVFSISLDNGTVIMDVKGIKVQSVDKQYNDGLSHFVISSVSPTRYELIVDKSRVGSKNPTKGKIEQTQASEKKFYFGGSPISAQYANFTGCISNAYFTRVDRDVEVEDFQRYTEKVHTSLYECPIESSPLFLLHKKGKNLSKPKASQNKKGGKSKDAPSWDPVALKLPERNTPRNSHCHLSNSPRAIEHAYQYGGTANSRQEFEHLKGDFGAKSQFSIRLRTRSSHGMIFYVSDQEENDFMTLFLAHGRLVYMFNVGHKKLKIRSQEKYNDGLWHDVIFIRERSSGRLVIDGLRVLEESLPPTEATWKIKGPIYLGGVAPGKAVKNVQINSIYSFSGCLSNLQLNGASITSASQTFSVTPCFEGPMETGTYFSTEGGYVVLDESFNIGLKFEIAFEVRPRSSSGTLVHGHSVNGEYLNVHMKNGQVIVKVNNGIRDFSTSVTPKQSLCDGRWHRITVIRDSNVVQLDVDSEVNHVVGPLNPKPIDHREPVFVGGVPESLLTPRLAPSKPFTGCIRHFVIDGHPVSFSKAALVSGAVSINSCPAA
T2 sequence (P07942 22-1786 limits assumed, chain 2 of 3): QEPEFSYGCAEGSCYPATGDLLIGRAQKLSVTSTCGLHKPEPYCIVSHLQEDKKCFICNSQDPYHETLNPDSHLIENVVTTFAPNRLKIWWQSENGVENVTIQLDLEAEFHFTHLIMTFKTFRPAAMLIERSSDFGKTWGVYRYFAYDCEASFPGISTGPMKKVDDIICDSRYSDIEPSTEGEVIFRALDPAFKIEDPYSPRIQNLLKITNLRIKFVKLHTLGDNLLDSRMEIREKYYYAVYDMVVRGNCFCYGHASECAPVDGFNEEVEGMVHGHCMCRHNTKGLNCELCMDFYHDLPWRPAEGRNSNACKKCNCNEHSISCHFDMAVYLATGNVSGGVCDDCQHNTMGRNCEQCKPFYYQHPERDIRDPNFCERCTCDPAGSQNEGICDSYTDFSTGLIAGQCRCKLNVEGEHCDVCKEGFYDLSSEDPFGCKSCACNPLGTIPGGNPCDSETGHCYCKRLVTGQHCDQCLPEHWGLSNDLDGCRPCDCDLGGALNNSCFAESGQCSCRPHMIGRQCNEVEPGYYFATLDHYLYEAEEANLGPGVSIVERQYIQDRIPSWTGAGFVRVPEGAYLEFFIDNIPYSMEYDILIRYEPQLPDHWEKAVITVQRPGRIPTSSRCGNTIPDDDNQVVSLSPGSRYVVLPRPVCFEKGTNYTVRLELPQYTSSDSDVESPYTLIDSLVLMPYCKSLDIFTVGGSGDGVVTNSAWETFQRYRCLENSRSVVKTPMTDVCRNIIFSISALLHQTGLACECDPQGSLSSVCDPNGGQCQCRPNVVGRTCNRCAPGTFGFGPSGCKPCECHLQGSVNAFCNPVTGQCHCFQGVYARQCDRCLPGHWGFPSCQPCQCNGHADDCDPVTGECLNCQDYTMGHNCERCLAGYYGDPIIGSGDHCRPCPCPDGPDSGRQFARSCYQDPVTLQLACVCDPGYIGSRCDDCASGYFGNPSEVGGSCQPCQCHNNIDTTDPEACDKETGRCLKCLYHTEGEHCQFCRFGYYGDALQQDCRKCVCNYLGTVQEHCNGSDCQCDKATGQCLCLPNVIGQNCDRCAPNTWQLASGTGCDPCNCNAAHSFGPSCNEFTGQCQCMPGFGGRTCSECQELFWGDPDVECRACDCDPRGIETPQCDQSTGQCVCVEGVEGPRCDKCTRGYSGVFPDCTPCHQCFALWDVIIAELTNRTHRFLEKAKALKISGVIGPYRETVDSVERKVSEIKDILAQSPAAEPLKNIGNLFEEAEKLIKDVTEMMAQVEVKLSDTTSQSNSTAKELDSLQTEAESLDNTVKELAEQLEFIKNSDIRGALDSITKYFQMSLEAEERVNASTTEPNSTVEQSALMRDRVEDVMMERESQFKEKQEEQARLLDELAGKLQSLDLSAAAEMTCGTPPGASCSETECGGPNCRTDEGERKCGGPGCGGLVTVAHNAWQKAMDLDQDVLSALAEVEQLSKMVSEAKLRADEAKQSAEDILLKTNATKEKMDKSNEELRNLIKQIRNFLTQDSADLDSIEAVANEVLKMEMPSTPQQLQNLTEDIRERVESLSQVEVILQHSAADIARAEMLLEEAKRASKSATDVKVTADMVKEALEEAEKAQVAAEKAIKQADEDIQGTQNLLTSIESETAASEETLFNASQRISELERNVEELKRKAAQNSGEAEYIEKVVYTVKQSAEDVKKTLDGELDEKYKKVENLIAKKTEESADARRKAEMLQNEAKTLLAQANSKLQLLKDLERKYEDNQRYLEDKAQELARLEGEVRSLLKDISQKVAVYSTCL
T2 sequence (P11047 34-1609 limits assumed, chain 3 of 3): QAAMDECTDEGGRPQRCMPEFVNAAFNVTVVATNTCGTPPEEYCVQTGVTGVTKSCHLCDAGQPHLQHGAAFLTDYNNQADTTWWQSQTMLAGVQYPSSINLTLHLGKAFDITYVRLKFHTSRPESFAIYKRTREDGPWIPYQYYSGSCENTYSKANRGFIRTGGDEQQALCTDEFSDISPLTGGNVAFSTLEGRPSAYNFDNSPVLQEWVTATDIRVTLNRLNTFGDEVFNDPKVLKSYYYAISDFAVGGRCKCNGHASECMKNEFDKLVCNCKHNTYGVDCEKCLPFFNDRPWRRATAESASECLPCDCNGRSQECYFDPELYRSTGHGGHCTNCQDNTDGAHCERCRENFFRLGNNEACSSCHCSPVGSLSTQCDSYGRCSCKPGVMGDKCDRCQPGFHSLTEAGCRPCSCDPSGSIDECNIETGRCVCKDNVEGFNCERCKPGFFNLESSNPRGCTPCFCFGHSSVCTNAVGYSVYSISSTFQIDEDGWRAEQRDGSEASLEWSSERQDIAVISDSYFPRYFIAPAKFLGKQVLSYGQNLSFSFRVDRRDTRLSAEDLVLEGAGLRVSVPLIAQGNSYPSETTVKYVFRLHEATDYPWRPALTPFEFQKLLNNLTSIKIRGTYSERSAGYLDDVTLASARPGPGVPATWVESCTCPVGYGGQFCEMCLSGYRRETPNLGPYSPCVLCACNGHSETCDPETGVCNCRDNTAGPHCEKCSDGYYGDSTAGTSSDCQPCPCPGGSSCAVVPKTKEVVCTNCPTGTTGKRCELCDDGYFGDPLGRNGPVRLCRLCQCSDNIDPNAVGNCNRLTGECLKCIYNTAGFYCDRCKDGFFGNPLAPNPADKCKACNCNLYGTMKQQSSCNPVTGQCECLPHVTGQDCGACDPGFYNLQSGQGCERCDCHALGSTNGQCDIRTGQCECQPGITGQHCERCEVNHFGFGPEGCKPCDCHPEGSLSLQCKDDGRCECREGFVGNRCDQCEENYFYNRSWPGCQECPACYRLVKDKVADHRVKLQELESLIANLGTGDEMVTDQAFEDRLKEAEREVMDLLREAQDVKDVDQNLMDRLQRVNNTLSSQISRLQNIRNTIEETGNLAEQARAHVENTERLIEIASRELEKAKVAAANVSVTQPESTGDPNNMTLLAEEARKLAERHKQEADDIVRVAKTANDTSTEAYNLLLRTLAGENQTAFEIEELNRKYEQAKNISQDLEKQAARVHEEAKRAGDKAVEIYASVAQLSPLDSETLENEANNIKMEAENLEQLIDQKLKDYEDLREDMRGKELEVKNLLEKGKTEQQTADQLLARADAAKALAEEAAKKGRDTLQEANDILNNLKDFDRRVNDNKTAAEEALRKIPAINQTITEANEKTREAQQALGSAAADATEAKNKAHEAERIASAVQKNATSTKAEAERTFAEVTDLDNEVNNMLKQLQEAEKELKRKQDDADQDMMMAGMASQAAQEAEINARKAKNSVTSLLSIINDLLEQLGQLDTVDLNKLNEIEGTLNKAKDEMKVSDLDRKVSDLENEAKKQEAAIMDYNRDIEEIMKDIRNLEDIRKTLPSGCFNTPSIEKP
Description: (§2) FIGS. 2A-C. […] ELISA plates were coated with 10 μg/mL laminin and further incubated with a 1 μg/mL (A) VEGF-A165, (B) PlGF-2, or (C) FGF-2 solution in the absence or presence of excess (10 μM) heparin. Bound GFs were detected using a specific antibody for each GF (n=4, mean±SEM). Statistical analyses were done using the Mann-Whitney U test by comparing the signals with and without heparin. *p<0.05, **p<0.01.
as §1

[4] = molecular target: T3, laminin-211 (human, UniProt P24043 23-3122; P07942 22-1786; P11047 34-1609); assay: as above
T3 construct: Full-length recombinant human laminin isoform (BioLamina); chains read from the isoform name
Description: as §2, §1

[5] = molecular target: T4, laminin-421 (human, UniProt Q16363 25-1823; P55268 33-1798; P11047 34-1609); assay: as above
T4 construct: Full-length recombinant human laminin isoform (BioLamina); chains read from the isoform name
Description: as §2, §1

[6] = molecular target: T5, laminin-111 (human, UniProt P25391 18-3075; P07942 22-1786; P11047 34-1609); assay: as above
T5 construct: Full-length recombinant human laminin isoform (BioLamina); Chain composition is read from the isoform name
Description: as §2, §1

[7] = molecular target: T6, human plasma-derived vWF (human, UniProt P04275 764-2813); assay: SPR; plasma-derived vWF immobilised (~2000 RU), VEGF-A165 flowed at 6.25-100 nM; 1:1 Langmuir fit [panel C]
T6 construct: mature; also called plasma-derived purified vWF; von Willebrand factor
Description: A450 nm represents absorbance at 450 nm. Signals from VEGF-A121 served as a baseline, and bovine serum albumin (BSA) served as a negative control (n=4, mean±SD). […] Experimental curves were fitted with (C) 1:1 Langmuir fit model and (D) heterogeneous ligand-parallel reactions binding.
SPR assays were performed as described previously2. In brief, measurements were made with a Biacore X100 SPR system or Biacore 3000 SPR system (GE Healthcare). […] Recombinant human VEGF-A165, VEGF-A121, or PDGF-BB was flowed at increasing concentrations in the running buffer at 30 μL/min. The sensor chip was regenerated with glycine at pH 2 for every cycle.

B1: vascular endothelial growth factor (VEGF)-A165 (ligand, human, UniProt P15692-4 27-191, looked up)
chain: APMAEGGGQNHHEVVKFMDVYQRSYCHPIETLVDIFQEYPDEIEYIFKPSCVPLMRCGGCCNDEGLECVPTEESNITMQIMRIKPHQGQHIGEMSFLQHNKCECRPKKDRARQENPCGPCSERRKHLFVQDPQTCKCSCKNTDSRCKARQLELNERTCRCDKPRR
notes: mature; Purchased in mature form, not glycosylated
Kd [1]: 1.2 nM | Kd [2]: 1.47 nM | koff [2]: 0.00663 s⁻¹ | kon [2]: 4.52e+06 M⁻¹ s⁻¹ | binding result [3]: binds | binding result [4]: binds | binding result [5]: binds | binding result [6]: binds | Kd [7]: 27.4 nM
